Measured values as given in US20160272683A1 (Novo Nordisk, published 2016).
Numbered stars: 1 amine (or outer) side, 2 acyl side, 3 side chain; on linkers, the order of the positions; unused ones are H or OH. * marks the point of attachment. C20 diacid = O=C(O)CCCCCCCCCCCCCCCCCCC(=O)*; C18 diacid = O=C(O)CCCCCCCCCCCCCCCCC(=O)*; γGlu = O=C(O)[C@H](CCC(=O)[*:2])N[*:1]

How the values were obtained:
[1] = molecular target: T1, human amylin 3(a) receptor (human calcitonin receptor co-expressed with RAMP-3) on BHK570/CRE-luc cells (human, UniProt P30988 25-474; O60896 24-148); assay: cell-based or functional assay
T1 sequence (looked up) 1: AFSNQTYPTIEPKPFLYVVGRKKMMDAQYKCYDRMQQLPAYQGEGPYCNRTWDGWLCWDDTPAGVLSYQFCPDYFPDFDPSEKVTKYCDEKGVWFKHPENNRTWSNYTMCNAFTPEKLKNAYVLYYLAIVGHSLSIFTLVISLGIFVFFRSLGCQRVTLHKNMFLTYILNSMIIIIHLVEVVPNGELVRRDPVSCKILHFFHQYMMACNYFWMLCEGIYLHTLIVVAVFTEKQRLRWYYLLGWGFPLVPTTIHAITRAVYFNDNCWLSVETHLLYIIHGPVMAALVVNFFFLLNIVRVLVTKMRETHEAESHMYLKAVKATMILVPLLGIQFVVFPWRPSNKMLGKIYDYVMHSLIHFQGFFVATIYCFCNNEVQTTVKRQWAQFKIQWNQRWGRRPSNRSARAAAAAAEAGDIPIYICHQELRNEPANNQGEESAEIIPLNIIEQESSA
T1 sequence (looked up) 2: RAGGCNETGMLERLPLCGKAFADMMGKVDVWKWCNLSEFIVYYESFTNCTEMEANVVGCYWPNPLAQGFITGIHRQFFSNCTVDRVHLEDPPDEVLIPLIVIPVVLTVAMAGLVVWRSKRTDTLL

[2] = molecular target: T2, human calcitonin receptor on BHK570/CRE-luc cells (human, UniProt P30988 25-474); assay: cell-based or functional assay
T2 sequence (looked up): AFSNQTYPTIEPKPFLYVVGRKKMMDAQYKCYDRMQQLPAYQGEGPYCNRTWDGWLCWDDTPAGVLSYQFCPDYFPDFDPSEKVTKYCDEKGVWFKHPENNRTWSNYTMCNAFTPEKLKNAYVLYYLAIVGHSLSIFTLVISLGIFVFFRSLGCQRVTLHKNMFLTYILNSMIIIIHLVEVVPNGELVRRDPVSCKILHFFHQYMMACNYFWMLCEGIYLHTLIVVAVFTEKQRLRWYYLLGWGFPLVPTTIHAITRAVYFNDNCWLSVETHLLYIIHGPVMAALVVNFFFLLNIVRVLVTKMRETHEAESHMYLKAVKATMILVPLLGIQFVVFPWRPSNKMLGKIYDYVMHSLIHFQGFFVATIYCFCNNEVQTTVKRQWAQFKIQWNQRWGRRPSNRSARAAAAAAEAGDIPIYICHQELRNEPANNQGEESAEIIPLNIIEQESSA

B1: [N-terminal(C20 diacid-gGlu), 4G, 15Q, 21Q, 23Y, 30S, 31G, 32T, 33Y]mimylin (peptide)
peptide: {C20 diacid-γGlu}-EASGLSTAALGRLSQELHELQTYPRTETGSGTY-NH2
SMILES: CC(C)C[C@H](NC(=O)CNC(=O)[C@H](CO)NC(=O)[C@H](C)NC(=O)[C@H](CCC(=O)O)NC(=O)CC[C@H](NC(=O)CCCCCCCCCCCCCCCCCCC(=O)O)C(=O)O)C(=O)N[C@@H](CO)C(=O)N[C@H](C(=O)N[C@@H](C)C(=O)N[C@@H](C)C(=O)N[C@@H](CC(C)C)C(=O)NCC(=O)N[C@@H](CCCNC(=N)N)C(=O)N[C@@H](CC(C)C)C(=O)N[C@@H](CO)C(=O)N[C@@H](CCC(N)=O)C(=O)N[C@@H](CCC(=O)O)C(=O)N[C@@H](CC(C)C)C(=O)N[C@@H](Cc1c[nH]cn1)C(=O)N[C@@H](CCC(=O)O)C(=O)N[C@@H](CC(C)C)C(=O)N[C@@H](CCC(N)=O)C(=O)N[C@H](C(=O)N[C@@H](Cc1ccc(O)cc1)C(=O)N1CCC[C@H]1C(=O)N[C@@H](CCCNC(=N)N)C(=O)N[C@H](C(=O)N[C@@H](CCC(=O)O)C(=O)N[C@H](C(=O)NCC(=O)N[C@@H](CO)C(=O)NCC(=O)N[C@H](C(=O)N[C@@H](Cc1ccc(O)cc1)C(N)=O)[C@@H](C)O)[C@@H](C)O)[C@@H](C)O)[C@@H](C)O)[C@@H](C)O
hAmylin-R funct. EC50 (pM), tested with HSA [1]: 128 pM
hCTR funct. EC50 (pM), tested with HSA [2]: 92 pM

B2: [N-terminal(C20 diacid-gGlu), des1, 21S, 23Y, 30S, 31G, 33Y]mimylin (peptide)
peptide: {C20 diacid-γGlu}-ASELSTAALGRLSAELHELSTYPRTETGSGSY-NH2
SMILES: CC(C)C[C@H](NC(=O)[C@H](C)NC(=O)[C@H](C)NC(=O)[C@@H](NC(=O)[C@H](CO)NC(=O)[C@H](CC(C)C)NC(=O)[C@H](CCC(=O)O)NC(=O)[C@H](CO)NC(=O)[C@H](C)NC(=O)CC[C@H](NC(=O)CCCCCCCCCCCCCCCCCCC(=O)O)C(=O)O)[C@@H](C)O)C(=O)NCC(=O)N[C@@H](CCCNC(=N)N)C(=O)N[C@@H](CC(C)C)C(=O)N[C@@H](CO)C(=O)N[C@@H](C)C(=O)N[C@@H](CCC(=O)O)C(=O)N[C@@H](CC(C)C)C(=O)N[C@@H](Cc1c[nH]cn1)C(=O)N[C@@H](CCC(=O)O)C(=O)N[C@@H](CC(C)C)C(=O)N[C@@H](CO)C(=O)N[C@H](C(=O)N[C@@H](Cc1ccc(O)cc1)C(=O)N1CCC[C@H]1C(=O)N[C@@H](CCCNC(=N)N)C(=O)N[C@H](C(=O)N[C@@H](CCC(=O)O)C(=O)N[C@H](C(=O)NCC(=O)N[C@@H](CO)C(=O)NCC(=O)N[C@@H](CO)C(=O)N[C@@H](Cc1ccc(O)cc1)C(N)=O)[C@@H](C)O)[C@@H](C)O)[C@@H](C)O
hAmylin-R funct. EC50 (pM), tested with HSA [1]: 64 pM
hCTR funct. EC50 (pM), tested with HSA [2]: 48 pM

B3: [N-terminal(C20 diacid-gGlu), des1, 9T, 21S, 23Y, 30S, 31G, 33Y]mimylin (peptide)
peptide: {C20 diacid-γGlu}-ASELSTATLGRLSAELHELSTYPRTETGSGSY-NH2
SMILES: CC(C)C[C@H](NC(=O)[C@H](CCCNC(=N)N)NC(=O)CNC(=O)[C@H](CC(C)C)NC(=O)[C@@H](NC(=O)[C@H](C)NC(=O)[C@@H](NC(=O)[C@H](CO)NC(=O)[C@H](CC(C)C)NC(=O)[C@H](CCC(=O)O)NC(=O)[C@H](CO)NC(=O)[C@H](C)NC(=O)CC[C@H](NC(=O)CCCCCCCCCCCCCCCCCCC(=O)O)C(=O)O)[C@@H](C)O)[C@@H](C)O)C(=O)N[C@@H](CO)C(=O)N[C@@H](C)C(=O)N[C@@H](CCC(=O)O)C(=O)N[C@@H](CC(C)C)C(=O)N[C@@H](Cc1c[nH]cn1)C(=O)N[C@@H](CCC(=O)O)C(=O)N[C@@H](CC(C)C)C(=O)N[C@@H](CO)C(=O)N[C@H](C(=O)N[C@@H](Cc1ccc(O)cc1)C(=O)N1CCC[C@H]1C(=O)N[C@@H](CCCNC(=N)N)C(=O)N[C@H](C(=O)N[C@@H](CCC(=O)O)C(=O)N[C@H](C(=O)NCC(=O)N[C@@H](CO)C(=O)NCC(=O)N[C@@H](CO)C(=O)N[C@@H](Cc1ccc(O)cc1)C(N)=O)[C@@H](C)O)[C@@H](C)O)[C@@H](C)O
hAmylin-R funct. EC50 (pM), tested with HSA [1]: 92 pM
hCTR funct. EC50 (pM), tested with HSA [2]: 40 pM

B4: [N-terminal(C20 diacid-gGlu), des1, 9S, 21S, 23Y, 30S, 31G, 33Y]mimylin (peptide)
peptide: {C20 diacid-γGlu}-ASELSTASLGRLSAELHELSTYPRTETGSGSY-NH2
SMILES: CC(C)C[C@H](NC(=O)[C@H](CO)NC(=O)[C@H](C)NC(=O)[C@@H](NC(=O)[C@H](CO)NC(=O)[C@H](CC(C)C)NC(=O)[C@H](CCC(=O)O)NC(=O)[C@H](CO)NC(=O)[C@H](C)NC(=O)CC[C@H](NC(=O)CCCCCCCCCCCCCCCCCCC(=O)O)C(=O)O)[C@@H](C)O)C(=O)NCC(=O)N[C@@H](CCCNC(=N)N)C(=O)N[C@@H](CC(C)C)C(=O)N[C@@H](CO)C(=O)N[C@@H](C)C(=O)N[C@@H](CCC(=O)O)C(=O)N[C@@H](CC(C)C)C(=O)N[C@@H](Cc1c[nH]cn1)C(=O)N[C@@H](CCC(=O)O)C(=O)N[C@@H](CC(C)C)C(=O)N[C@@H](CO)C(=O)N[C@H](C(=O)N[C@@H](Cc1ccc(O)cc1)C(=O)N1CCC[C@H]1C(=O)N[C@@H](CCCNC(=N)N)C(=O)N[C@H](C(=O)N[C@@H](CCC(=O)O)C(=O)N[C@H](C(=O)NCC(=O)N[C@@H](CO)C(=O)NCC(=O)N[C@@H](CO)C(=O)N[C@@H](Cc1ccc(O)cc1)C(N)=O)[C@@H](C)O)[C@@H](C)O)[C@@H](C)O
hAmylin-R funct. EC50 (pM), tested with HSA [1]: 143 pM
hCTR funct. EC50 (pM), tested with HSA [2]: 108 pM

B5: [N-terminal(C20 diacid-gGlu), des1, 12K, 23Y, 25K, 30S, 31G, 33Y]mimylin (peptide)
peptide: {C20 diacid-γGlu}-ASELSTAALGKLSAELHELATYPKTETGSGSY-NH2
SMILES: CC(C)C[C@H](NC(=O)[C@H](C)NC(=O)[C@H](C)NC(=O)[C@@H](NC(=O)[C@H](CO)NC(=O)[C@H](CC(C)C)NC(=O)[C@H](CCC(=O)O)NC(=O)[C@H](CO)NC(=O)[C@H](C)NC(=O)CC[C@H](NC(=O)CCCCCCCCCCCCCCCCCCC(=O)O)C(=O)O)[C@@H](C)O)C(=O)NCC(=O)N[C@@H](CCCCN)C(=O)N[C@@H](CC(C)C)C(=O)N[C@@H](CO)C(=O)N[C@@H](C)C(=O)N[C@@H](CCC(=O)O)C(=O)N[C@@H](CC(C)C)C(=O)N[C@@H](Cc1c[nH]cn1)C(=O)N[C@@H](CCC(=O)O)C(=O)N[C@@H](CC(C)C)C(=O)N[C@@H](C)C(=O)N[C@H](C(=O)N[C@@H](Cc1ccc(O)cc1)C(=O)N1CCC[C@H]1C(=O)N[C@@H](CCCCN)C(=O)N[C@H](C(=O)N[C@@H](CCC(=O)O)C(=O)N[C@H](C(=O)NCC(=O)N[C@@H](CO)C(=O)NCC(=O)N[C@@H](CO)C(=O)N[C@@H](Cc1ccc(O)cc1)C(N)=O)[C@@H](C)O)[C@@H](C)O)[C@@H](C)O
hAmylin-R funct. EC50 (pM), tested with HSA [1]: 93 pM
hCTR funct. EC50 (pM), tested with HSA [2]: 73 pM

B6: [N-terminal(C18 diacid-gGlu), des1, 5V, 9V, 10V, 20V, 30S, 31G]mimylin (peptide)
peptide: {C18 diacid-γGlu}-ASEVSTAVVGRLSAELHEVATLPRTETGSGSP-NH2
SMILES: CC(C)C[C@H](NC(=O)[C@H](CCCNC(=N)N)NC(=O)CNC(=O)[C@@H](NC(=O)[C@@H](NC(=O)[C@H](C)NC(=O)[C@@H](NC(=O)[C@H](CO)NC(=O)[C@@H](NC(=O)[C@H](CCC(=O)O)NC(=O)[C@H](CO)NC(=O)[C@H](C)NC(=O)CC[C@H](NC(=O)CCCCCCCCCCCCCCCCC(=O)O)C(=O)O)C(C)C)[C@@H](C)O)C(C)C)C(C)C)C(=O)N[C@@H](CO)C(=O)N[C@@H](C)C(=O)N[C@@H](CCC(=O)O)C(=O)N[C@@H](CC(C)C)C(=O)N[C@@H](Cc1c[nH]cn1)C(=O)N[C@@H](CCC(=O)O)C(=O)N[C@H](C(=O)N[C@@H](C)C(=O)N[C@H](C(=O)N[C@@H](CC(C)C)C(=O)N1CCC[C@H]1C(=O)N[C@@H](CCCNC(=N)N)C(=O)N[C@H](C(=O)N[C@@H](CCC(=O)O)C(=O)N[C@H](C(=O)NCC(=O)N[C@@H](CO)C(=O)NCC(=O)N[C@@H](CO)C(=O)N1CCC[C@H]1C(N)=O)[C@@H](C)O)[C@@H](C)O)[C@@H](C)O)C(C)C
hAmylin-R funct. EC50 (pM), tested with HSA [1]: 106 pM
hCTR funct. EC50 (pM), tested with HSA [2]: 28 pM

B7: [N-terminal(C20 diacid-gGlu), des1, 4G, 9V, 23Y, 30S, 31G, 32T]mimylin (peptide)
peptide: {C20 diacid-γGlu}-ASGLSTAVLGRLSAELHELATYPRTETGSGTP-NH2
SMILES: CC(C)C[C@H](NC(=O)CNC(=O)[C@H](CO)NC(=O)[C@H](C)NC(=O)CC[C@H](NC(=O)CCCCCCCCCCCCCCCCCCC(=O)O)C(=O)O)C(=O)N[C@@H](CO)C(=O)N[C@H](C(=O)N[C@@H](C)C(=O)N[C@H](C(=O)N[C@@H](CC(C)C)C(=O)NCC(=O)N[C@@H](CCCNC(=N)N)C(=O)N[C@@H](CC(C)C)C(=O)N[C@@H](CO)C(=O)N[C@@H](C)C(=O)N[C@@H](CCC(=O)O)C(=O)N[C@@H](CC(C)C)C(=O)N[C@@H](Cc1c[nH]cn1)C(=O)N[C@@H](CCC(=O)O)C(=O)N[C@@H](CC(C)C)C(=O)N[C@@H](C)C(=O)N[C@H](C(=O)N[C@@H](Cc1ccc(O)cc1)C(=O)N1CCC[C@H]1C(=O)N[C@@H](CCCNC(=N)N)C(=O)N[C@H](C(=O)N[C@@H](CCC(=O)O)C(=O)N[C@H](C(=O)NCC(=O)N[C@@H](CO)C(=O)NCC(=O)N[C@H](C(=O)N1CCC[C@H]1C(N)=O)[C@@H](C)O)[C@@H](C)O)[C@@H](C)O)[C@@H](C)O)C(C)C)[C@@H](C)O
hAmylin-R funct. EC50 (pM), tested with HSA [1]: 66 pM
hCTR funct. EC50 (pM), tested with HSA [2]: 35 pM
